Holding throughout (test): cell-based or functional assay
Test [1] concerns the target GFRα3-RET receptor complex (cells transfected with GFRα3 and expressing RET).
For test [2], the target named is GFRα2-RET receptor complex (cells transfected with GFRα2 and expressing RET).
Test [3] deals with GFRα1-RET receptor complex (cells transfected with GFRα1 and expressing RET).

From patent US6866851 come the findings set out here.

In turn, “PAP-Ha/F2ac (persephin with regions Ha, F2a and F2c from artemin) (ligand)” displayed a GFRα3-RET reporter activation relative to artemin (% of full length artemin) in test [1] of 70 to 80. For “PNP-Ha/F2ac (persephin with regions Ha, F2a and F2c from neurturin) (ligand)”, the GFRα2-RET reporter activation relative to GDNF in test [2] is 70 to 80 % of GDNF. With “GPG-Ha (GDNF homologue-scanning mutant, region Ha replaced by persephin sequence) (ligand)”, the GFRα1-RET reporter activation (FIG. 4, percentage of reporter activation by GDNF) in test [3] worked out at 80%. The GFRα2-RET reporter activation (FIG. 4, percentage of reporter activation by GDNF) in test [2] worked out at 27%. “PNP-F2ac (His-Flag-PNP-F2ac, from mouse sequences) (ligand)”: the GFRα2-RET reporter activation relative to GDNF in test [2] is < 30 % of GDNF. For the substance “GPG-F2c (GDNF homologue-scanning mutant, region F2c replaced by persephin sequence) (ligand)”, the GFRα1-RET reporter activation relative to GDNF (% of full-length GDNF) in test [3] is under 60.
